The values that follow come from the DeepSol protein solubility set.

This series is described as follows: soluble on expression in E. coli; label from the status in PepcDB or PDB records.
Take “MSASESDLAIVAEQLGREPRGVIEVSYHTPDGVPGVVMTTPKLDDGTPFPTLYYLTEPRLTAEASRLEVAHVMKWMTDRLHSDEELRQDYERAHEYFLAKRNALEDLGTDFSGGGMPDRVKCLHVLIAYALAEGPDHFRLGTEAVALAADHGGLRGTAIPQDWPTVESLGMSLDQFDFSHADVPGASK”: the “soluble on expression in E. coli” value is on record as “not soluble”.

On to “MSASLVETVDIEAPVAVTWALWSDVSRWPSFLSHVRLVEPLDERRFAWQLSLPGADKNFVAELTEVIPGDRIAWQTTEGVHHAGVVTFHRLSDTSSRVTLQIEYDPKGFVEHIGALTNLDSTLANYDLGEFQKLAETAAAGLEHHHHHH”, for which the “soluble on expression in E. coli” value is “not soluble”.

In the case of “MSASRQRPGNHLLPTLFDRLCDDAPNQKRDHGISVSPVQIKEIIRRDLSFLLNTVSHEDDIDAARYPYAAASVLNYGLPPLAGSFLYEHKWDDIRRAILRTITRFEPRLKASTLQIIPLQDERRQSGHNTLQFEIRGEILTQPYPTAFRVRSALDMEQSRITFF”, the “soluble on expression in E. coli” value is reported as “not soluble”.

Turning to “MSCMGAAVNIITTDGPAGRAGFTASAVCSVTDTPPTLLVCLNRGASVWPVFNENRTLCVNTLSAGQEPLSNLFGGKTPMEHRFAAARWQTGVTGCPQLEEALVSFDCRISQVVSVGTHDILFCAIEAIHRHTTPYGLVWFDRSYHALMRPAC”, the “soluble on expression in E. coli” value is recorded as “not soluble”.

Consider “MSCYIYWDKIKRIASRLEGMNYHFDEMDTSGVMPLLDEIEEIAHDSTIDFESAKHILDDAEMNHALSLIRKFYVNLGMKLQMEKAQEVIESDSPWETLRSFYFYPRYLELLKNEAALGRFRRGERAVFIGGGPLPLTGILLSHVYGMRVNVVEIEPDIAELSRKVIEGLGVDGVNVITGDETVIDGLEFDVLMVAALAEPKRRVFRNIHRYVDTETRIIYRTYTGMRAILYAPVSDDDITGFRRAGVVLPSGKVNNTSVLVFKCPDKGELNSKLEGKPIPNPLLGLDSTRTGHHHHHH”, for which the “soluble on expression in E. coli” value is recorded as “soluble”.

Consider “MSDAAKPDRPDEALVLEYDFDAPPAKVWRAVTIPALRERWSPDCDLAGAEPESTIAGEEVRYRLRDSEPPFRESHVIFRIEPNEDGGTRFRIIQQACDDLAKLPQPANTNCRLMMAALEHHHHHH”, for which the “soluble on expression in E. coli” value is listed as “soluble”.

Take “MSDDEDEGRLQIDESPSDSEDKPSISAPPPLPPPLQETPEFQTTYDAHDQAETSGKEDGELDEDDENDDIEPMEIDEEIQLEIDEKPEDLVKDEQISEPTDKMREEFLKVEKTDENAVVESTSSFSPKLIDEQDLKVEEMSDEKHAQSPVSSDMTTSKSPTPSKKENGLMKPPQSTEKAQRKRKESTDIFSSEKRKLSLETVASSSSSSGSSNLSTTPQRSKRSSSHMATIAISACFTDEDIVSVPMMPIQKTPDTAPHSKRAKRDIGTNVITTRSTDTSGLLCNEAIMDTPPGSQMTLEVTVMYRTKNSLAFRVKGCDLIGFIGDGLPPMASSLTNNIASSMGNNNNKKKTASSSGNEEGKDGRSSSASSNGRGARGGSVLKDGKGDKQKGKRKKEETNDDDLEDENQNNEQYGSKKCELVEVDVAQLHDCHYDGCEKRFQKTTDLEYHISKNHKRRVMMYESICTQTSISSLETQNNSTQIDDDLPPMPQMPILKKEVPIKTPIGNVYEDLSDDDSETKPTDLVLKTPSSSASSAVATLMGIAQVSSSTTSATTSVVPPVGAQRSTPATPVSAKIGINPSMVANALAEKNKQQQQQQQKLNQLQPPHNPSLSTAPSSSSAQPPTMIQAHPMAGVFIPPPFHPAMMNPQMAAMMDQQRIAVAMSQQQQMSRTPSRQTISVSDSHKIHELAKSRENQQRQQSATPKTPSESVSTTGVVTPQRQFLPPQMMQPGTPQSILLQQQQQQQQQQQQAAAQHQIIQQMQMQMQRGMAPQMANQELLMMMMGMPHMVQGVPGFPGVPQLPPK”: the “soluble on expression in E. coli” value is “soluble”.

On to “MSDHDRDFDVVVVGGGHNGLVAAAYLARAGLRVRLLERLAQTGGAAVSIQAFDGVEVALSRYSYLVSLLPSRIVADLGAPVRLARRPFSSYTPAPATAGRSGLLIGPTGEPRAAHLAAIGAAPDAHGFAAFYRRCRLVTARLWPTLIEPLRTREQARRDIVEYGGHEAAAAWQAMVDEPIGHAIAGAVANDLLRGVIATDALIGTFARMHEPSLMQNICFLYHLVGGGTGVWHVPIGGMGSVTSALATAAARHGAEIVTGADVFALDPDGTVRYHSDGSDGAEHLVRGRFVLVGVTPAVLASLLGEPVAALAPGAQVKVNMVVRRLPRLRDDSVTPQQAFAGTFHVNETWSQLDAAYSQAASGRLPDPLPCEAYCHSLTDPSILSARLRDAGAQTLTVFGLHTPHSVFGDTEGLAERLTAAVLASLNSVLAEPIQDVLWTDAQSKPCIETTTTLDLQRTLGMTGGNIFHGALSWPFADNDDPLDTPARQWGVATDHERIMLCGSGARRGGAVSGIGGHNAAMAVLACLASRRKSPLEHHHHHH”, for which the “soluble on expression in E. coli” value was “not soluble”.

As to “MSDLHTKLGSGMNKLQEGIEQGKMKLQVAQEIAQLKKGMQVQMQKKAEVLLEVGQQVYVQLRGSGVNEASLKEMIAPVQEFDVAIYQARKRIVELQKQQGEKATCECGGPLSINDKFCGSCGKPNPMLTVENEGETVNCISCNEHIDKNSTYCPVCGIKQSGE”, the “soluble on expression in E. coli” value is on record as “not soluble”.

For the sequence “MSDLPRKAVTRTAKLAALPLGFAGRATWGLGKRIVGESAEIVGQQLQQRTAEQLFKVLGELKGGAMKFGQALSVFESALPEEVAGPYRAALTKLQEAAPPMPTRTVHSVLAERLGEDWQELFLEFEDKPAAAASIGQVHRGVWQDGREVAVKVQYPGAGEALLSDLNQLSRFARLLGPLVPGMDIKPLITELKDRVSEELDYDLEAQAQRTHAEVFDDDPDIVVPDVIHQCEQVLITEWIDGIPMSEIISNGTQEQRDRAGQLLAHFLFSGPARTGLLHADPHPGNFRLLPGGPRGEDDWRLGVLDFGTVDRLPGGLPEPIGEALRMTLDGEAEAVYEMLCAEGFVKESIELAPDAVLEYLLPIIEPARVDAFTFTRGWMRSQAARIGDPRSPAYQLAKQLNLPPAYLLIHRVTLSTIGVLCQLGATVRLRDELEEWLVGFVAEGEAEVEEGEEADEDVYETEGTAAEALEHHHHHH”, the “soluble on expression in E. coli” value is “not soluble”.

Regarding “MSDLYVTKEGDMVDAICWRYYAKGQQALAVERVYAANFGLADYGPILKAGITIVLPILPYPKATPVIRIWGSQS”, the “soluble on expression in E. coli” value is on record as “not soluble”.

“MSDNDDDFMCDDDEDYGLEYSEDSNSEPDVDLENQYYNSKALKEEEPKAALASFQKVLDLENGEKGEWGFKALKQMIKINFRLCNYDEMMVRYKQLLTYIKSAVTRNHSEKSINSILDYISTSKNMALLQNFYETTLDALRDAKNDRLWFKTNTKLGKLYFDRSDFTKLQKILKQLHQSCQTDDGEDDLKKGTQLLEIYALEIQMYTVQKNNKKLKALYEQSLHIKSAIPHPLIMGVIRECGGKMHLREGEFEKAHTDFFEAFKNYDESGSPRRTTCLKYLVLANMLMKSGINPFDSQEAKPYKNDPEILAMTNLVNSYQNNDINEFETILRQHRSNIMADQFIREHIEDLLRNIRTQVLIKLIRPYKNIAIPFIANALNIEPAEVESLLVSCILDDTIKGRIDQVNQVLQLDKINSSASRYNALEKWSNQIQSLQFAVVQKMA”: the “soluble on expression in E. coli” value is “soluble”.

On to “MSDNLPWKTWTPDDLAPPPAEFVPMVESEETIIEEAEPSLEQQLAQLQMQAHEQGYQAGIAEGRQQGHEQGYQEGLAQGLEQGLAEAKAQQAPIHARMQQLVSEFQTTLDALDSVIASRLMQMALEAARQVIGQTPTVDNSALIKQIQQLLQQEPLFSGKPQLRVHPDDLQRVDDMLGATLSLHGWRLRGDPTLHPGGCKVSADEGDLDASVATRWQELCRLAAPGVV”, for which the “soluble on expression in E. coli” value is listed as “not soluble”.

Turning to “MSDRKAVIKNADMSEDMQQDAVDCATQAMEKYNIEKDIAAYIKKEFDKKYNPTWHCIVGRSGNFGSYVTHETKHFIYFYLGQVAILLFKSG”, the “soluble on expression in E. coli” value is “soluble”.
